From patent publication US20170267780A1 come the findings set out here.

Test [1] deals with Recombinant human FcRn (human) (UniProt P55899). Nature of the test: SPR (ProteOn), IgG immobilised, pH 7.4.
The target is the same in test [2]. Nature of the test: SPR (ProteOn), IgG immobilised, pH 6.0.
Test [3] concerns the target Cyno FcRn (cynomolgus monkey) (UniProt Q8SPV9). Nature of the test: SPR (ProteOn), IgG immobilised, cyno FcRn, pH 6.0.
For test [4], the target named is Fcγ IIIa (158 F) (UniProt P08637). Nature of the test: effector binding, values nM, method not stated.
In test [5] the target is C1q (UniProt P02745). Description: effector binding, values nM, method not stated.
Test [6] addresses Fcγ RIa (UniProt P12314). Description: effector binding, values nM, method not stated.
In test [7] the target is Fcγ IIa (UniProt P12318). Nature of the test: effector binding, values nM, method not stated.
The target in test [8] is Cyno FcRn (cynomolgus monkey) (UniProt Q8SPV9). Description: SPR (ProteOn), IgG immobilised, cyno FcRn, pH 7.4.
For test [9], the target named is Fcγ IIIa (158 V) (UniProt P08637). Description: effector binding, values nM, method not stated.
Test [10] concerns the target Fcγ IIb (UniProt P31994). Nature of the test: effector binding, values nM, method not stated.

Cyno FcRn (cynomolgus monkey), sequence (Q8SPV9 24-297 limits assumed, chain 1 of 2): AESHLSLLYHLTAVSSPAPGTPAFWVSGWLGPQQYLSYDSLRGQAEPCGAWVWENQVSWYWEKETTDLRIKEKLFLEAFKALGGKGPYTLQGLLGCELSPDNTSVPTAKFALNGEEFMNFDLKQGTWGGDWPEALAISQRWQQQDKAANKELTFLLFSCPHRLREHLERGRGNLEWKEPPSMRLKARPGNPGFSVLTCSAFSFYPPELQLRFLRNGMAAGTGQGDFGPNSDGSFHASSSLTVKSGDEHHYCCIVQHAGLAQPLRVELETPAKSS
Cyno FcRn (cynomolgus monkey), sequence (Q8SPW0 21-119 limits assumed, chain 2 of 2, further chain): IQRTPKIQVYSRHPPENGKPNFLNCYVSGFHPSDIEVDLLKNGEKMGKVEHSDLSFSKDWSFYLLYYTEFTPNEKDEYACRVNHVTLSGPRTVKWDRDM
Recombinant human FcRn (human), sequence (P55899 24-297 limits assumed, chain 1 of 2): as the sequence (Q8SPV9 24-297 limits assumed, chain 1 of 2) above, with D39N, Q44E, S99G, G189S, N190S, M217L, T269S counted along it
Recombinant human FcRn (human), sequence (b2m, as listed by the source limits assumed, chain 2 of 2): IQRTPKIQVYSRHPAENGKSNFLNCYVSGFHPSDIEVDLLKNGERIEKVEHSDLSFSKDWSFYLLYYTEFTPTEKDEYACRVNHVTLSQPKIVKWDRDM
Fcγ IIIa (158 F), sequence (P08637 17-208 limits assumed): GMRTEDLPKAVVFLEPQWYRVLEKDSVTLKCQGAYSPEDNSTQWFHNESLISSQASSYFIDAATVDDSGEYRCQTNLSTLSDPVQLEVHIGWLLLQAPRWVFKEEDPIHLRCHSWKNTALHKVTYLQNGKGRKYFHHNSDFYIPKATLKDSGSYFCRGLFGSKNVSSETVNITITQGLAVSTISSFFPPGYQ
C1q, sequence (P02745 23-245, chain 1 of 3): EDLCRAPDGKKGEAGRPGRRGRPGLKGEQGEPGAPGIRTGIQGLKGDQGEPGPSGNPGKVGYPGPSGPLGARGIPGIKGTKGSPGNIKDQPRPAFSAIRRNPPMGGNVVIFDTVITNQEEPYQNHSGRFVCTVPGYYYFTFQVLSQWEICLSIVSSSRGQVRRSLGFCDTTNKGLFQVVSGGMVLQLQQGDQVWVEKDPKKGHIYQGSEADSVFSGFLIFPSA
C1q, sequence (P02746 28-253, chain 2 of 3, further chain): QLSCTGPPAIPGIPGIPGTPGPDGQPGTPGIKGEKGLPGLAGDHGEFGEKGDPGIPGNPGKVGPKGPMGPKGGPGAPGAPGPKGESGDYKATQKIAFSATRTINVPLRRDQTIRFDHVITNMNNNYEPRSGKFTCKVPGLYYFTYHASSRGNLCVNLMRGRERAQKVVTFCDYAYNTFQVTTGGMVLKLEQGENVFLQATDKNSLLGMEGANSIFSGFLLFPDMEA
C1q, sequence (P02747 29-245, chain 3 of 3, further chain): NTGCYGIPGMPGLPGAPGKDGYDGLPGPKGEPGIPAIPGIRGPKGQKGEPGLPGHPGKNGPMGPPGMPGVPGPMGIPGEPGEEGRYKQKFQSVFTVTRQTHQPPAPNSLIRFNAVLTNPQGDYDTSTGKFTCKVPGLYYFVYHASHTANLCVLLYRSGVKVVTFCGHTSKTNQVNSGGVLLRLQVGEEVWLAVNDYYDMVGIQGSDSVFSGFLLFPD
Fcγ IIIa (158 V), sequence (P08637 17-208 F176V limits assumed): as the sequence (P08637 17-208 limits assumed) above, with F160V counted along it
Fcγ RIa, sequence (P12314 16-288 limits assumed): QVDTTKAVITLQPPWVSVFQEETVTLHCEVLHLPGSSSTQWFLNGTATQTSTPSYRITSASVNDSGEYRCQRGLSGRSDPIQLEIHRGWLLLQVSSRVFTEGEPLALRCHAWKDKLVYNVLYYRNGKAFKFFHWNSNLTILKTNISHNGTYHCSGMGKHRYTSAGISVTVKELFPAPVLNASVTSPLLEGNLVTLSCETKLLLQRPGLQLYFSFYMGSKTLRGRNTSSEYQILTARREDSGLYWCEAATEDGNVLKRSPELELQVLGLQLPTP
Fcγ IIa, sequence (P12318 34-217 limits assumed): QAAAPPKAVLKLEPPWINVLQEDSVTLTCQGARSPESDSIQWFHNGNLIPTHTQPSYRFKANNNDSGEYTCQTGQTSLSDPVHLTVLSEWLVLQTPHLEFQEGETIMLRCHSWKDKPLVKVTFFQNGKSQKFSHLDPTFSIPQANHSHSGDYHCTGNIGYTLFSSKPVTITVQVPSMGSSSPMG
Fcγ IIb, sequence (P31994 43-217 limits assumed): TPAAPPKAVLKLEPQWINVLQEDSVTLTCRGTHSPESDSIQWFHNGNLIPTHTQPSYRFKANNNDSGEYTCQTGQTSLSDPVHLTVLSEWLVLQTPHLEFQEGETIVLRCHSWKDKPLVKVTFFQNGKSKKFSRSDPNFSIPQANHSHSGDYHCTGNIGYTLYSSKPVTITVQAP

As to HB20.3 (anti-CD20) IgG1 YTE (antibody), the Kd in [1] worked out at 5800 nM; in test [2], 215 nM.
In the case of Wildtype Motavizumab (antibody), the Kd in test [3] amounted to 1920 nM; in test [4], 4140 nM; in test [5] it was 328 nM; in [6] it was 45.8 nM; in test [7], 506 nM.
For the substance Motavizumab YTE (antibody), the Kd in test [3] came to 275 nM; in test [2], 314 nM; in test [8], 8000 nM; in [4] it was 6060 nM; in [5], 482 nM; in test [9] it was 245 nM. Besides, the Kd in test [10] came to 1950 nM.
